Where “and” joins values, the source holds several entries; their conditions need not be identical. Equal values may be shown once.
Key:
[1] = Laccase activity assay, oxidation of ABTS; format: biochemical
From the text: (§1) FIG. 6D-Thermostability of LccA.

[2] = Laccase activity assay, oxidation of DMP with copper sulfate; format: biochemical; details: US02-purified LccA, standard conditions, CuSO4 added
[3] = Oxidation of bilirubin; format: biochemical; details: US02-purified LccA
[4] = Oxidation of guaiacol; format: biochemical; details: presence or absence of copper supplementation
[5] = Oxidation of ferrous ammonium sulfate; format: biochemical; details: presence or absence of copper supplementation
[6] = Thermostability of LccA, residual SGZ oxidizing activity after pre-incubation; format: physicochemical
Protocol: as §1
LccA was fully active after 1 h at 55° C. and 5 h at 50° C., with a half-live of inactivation at 50° C. of 31.5 h (FIG. 6D). […] (Fernandes et al., 2007). Likewise, the recently studied recombinant RL 5 laccase from rumen metagenome has maximal activity at 60° C. and is fully stable at this temperature for 200 min (Beloqui et al., 2006). […] (Martins et al., 2002).

[7] = Salt tolerance of LccA, residual SGZ oxidizing activity after pre-incubation in NaCl; format: physicochemical; details: 100 mM to at least 1.4 M NaCl, FIG. 6E
[8] = Effect of mixed organo-solvents on LccA stability, residual SGZ oxidizing activity; format: physicochemical; details: 185 mM NaCl
Protocol: as §1
Commonly used water miscible organo-solvents (i.e., methanol, ethanol, dimethyl sulfoxide or DMSO and dimethylformamide or DMF) were examined for their compatibility with LccA stability and activity. […] LccA was relatively stable in all solvents examined, retaining nearly 75% of its activity after 24 h incubation in methanol or ethanol and over 50% of its activity after incubation in DMSO or DMF. The influence of water-miscible cosolvents on enzyme activity and stability has been examined for several fungal laccases (Rodakiewicz-Nowak et al., 1999; Robles et al., 2002; Milstein et al., 1993; Luterek et al., 1998; Cantarella et al., 2003). These prior studies coupled with the current findings reveal a wide-variety of laccases, including LccA, are stable and/or can support catalysis and conversion of phenolic substrates in water-organic mixed solvents. Since most of the substrates and mediators of laccases are insoluble or poorly soluble in water and the degree of polymerization of phenoxyl radicals is higher in aqueous media (Milstein et al., 1993), solvent stability is an important feature to consider in optimizing this group of enzymes.

[9] = Delignification of steam exploded sugarcane bagasse, total phenol by Folin-Ciocalteau
Protocol: Prior to enzymatic treatment, sugarcane bagasse was treated with 1% (v/v) phosphoric acid and steam exploded in a shotgun reactor at 190° C. for 10 min. The resultant bagasse was adjusted to pH 8.4 with 5M NaOH.
Stream exploded bagasse was delignified using the laccase, LccA, from H. volcanii US02. LccA was prepared for the delignification reaction by concentrating H. volcanii US02 culture supernatant 5-fold with ethanol precipitation and dialyzing the concentrate against 25 mM Tris buffer pH 8.4 supplemented with 200 mM NaCl (T buffer) with regenerated cellulose dialysis tubing (3500 Da molecular weight cut off; Thermo Scientific SnakeSkin Pleated Dialysis Tubing).
Bagasse samples were treated with LccA in a rotary shaker at 150 rpm with similar doses of heat killed LccA enzyme (HKE) as a control. Periodically clear supernatant obtained by centrifugation of small fraction of hydrolysate was used for total phenol estimation by Folin-Ciocalteau method (Singleton and Rossi, 1965). Optimal conditions were determined to be treatment with 3 Uml^1 LccA at 37° C. in T buffer at pH 8.4 for 3-6 h.

[10] = Laccase activity assay, oxidation of SGZ (syringaldazine); details: for Km: read-out: Km, SGZ
Protocol: LccA (51 μg·ml^−1) activity was assayed at different temperatures (22° to 70° C.) in T buffer with 185 mM NaCl using SGZ (1 mM) as the substrate. […] LccA activity was assayed with SGZ (●) from pH 6 to 11 and with ABTS (◯) from pH 3 to 8 at 45° C. using following buffers: 100 mM sodium acetate for pH 3 to 6, 25 mM Tris-HCl for pH 7 to 10, and 25 mM glycine-NaOH for pH 11. Activity is expressed as percent relative to oxidation of ABTS at pH 6. […] Purified enzyme (50.6 μg·ml^−1) was pre-incubated in T buffer supplemented with 185 mM NaCl at temperatures from 37° to 70° C. for up to 60 h, as indicated. […] Activity is presented as percent relative to incubation on ice (37° C. (●), 45° C. (▪), 50° C. (▴), 55° C. (♦), 60° C. (◯), 65° C. (□) and 70° C. (Δ)); FIG. 6E-Salt tolerance of LccA protein. Purified enzyme (16.5 μg·ml^−1) was pre-incubated for 30 min in T buffer at pH 8.4 supplemented with different concentrations of NaCl (0 to 1.4 M) as indicated. Samples were diluted to a final concentration 4.12 μg·ml^−1 protein and 185 mM NaCl in T buffer and assayed for SGZ oxidizing activity under standard conditions. Residual activity was calculated as percent relative to incubation at 185 mM NaCl. […] Enzyme (7.5 μg·ml^−1) was incubated in T buffer with 185 mM NaCl in the presence and absence of 25% (v/v) solvent (DMSO, DMF, ethanol and methanol) at room temperature for 90 min (white bar), 3 h (grey bar) and 24 h (black bar). […] Activity is calculated as percent relative to incubation without solvent.
Enzyme activity was determined by change in absorbance, in triplicate, by UV/Visible-spectroscopy using a BioTek Synergy HT multi-detection microplate reader with a 96-well plate. Oxidation of substrate was monitored by absorbance increase (ABTS at 420 nm with ε=36,000 M^−1 cm^−1; SGZ at 526 nm with ε=65,000 M^−1 cm^−1; DMP at 468 nm with ε=49,000 M^−1 cm^−1; guaiacol at 436 nm with ε=26,600 M^−1 cm^−1; ferrous ammonium sulfate at 315 nm with ε=2,200 M^−1 cm^−1) or decrease (bilirubin at 440 nm with ε=56,300 M^−1 cm^−1). Standard assay conditions were 185 mM NaCl at 45° C. with the following buffers and substrate concentrations: 100 mM sodium acetate buffer at pH 6.0 for ABTS (at 5 mM), DMP (at 2 mM) and guaiacol (at 5 mM); 25 mM Tris-HCl buffer at pH 8.4 for SGZ (at 1 mM); and 200 mM Tris-HCl buffer at pH 8.4 for bilirubin (0.45 mM). Copper sulfate (1 mM) was included for assay of DMP oxidation. Oxidation of ferrous ammonium sulphate (1 mM) was monitored at 315 nm (ε=2,200 M^−1 cm^−1) with and without salt (185 mM NaCl) in 100 mM MES (morpholineethanesulfonic acid) buffer at pH 5 as well as 25 mM Tris-HCl buffer at pH 7.0 and 8.4. One unit of enzyme activity is defined as the amount of enzyme that oxidizes 1 μmol of substrate per min at standard conditions. […] Kinetic parameters (Km, Vmax, and kcat) were determined using the Michaelis-Menten equation. […] All assays and protein purifications were performed at least in triplicate.
To further evaluate the catalytic properties of LccA, the temperature, pH and salt optima of the purified enzyme were determined using SGZ and/or ABTS as substrates.

[11] = LccA from culture broth of Hfx. volcanii BS01
[12] = LccA from culture broth of Hfx. volcanii US02

B1: LccA: Haloferax volcanii laccase of the multicopper oxidase family, SEQ ID NO: 2, secreted glycoprotein purified from culture broth of strain US02 (protein, listed as Haloferax volcanii)
chain: MTDWSRRRFLQTGAALGIAGTLPQTTTEVSAASPTLEKFVQPLPIPSVREPDGQRDGADAYEIAVTEFTQQLHPDLPETTVWGFDGSYPGPTIEADAGSPVHVRFDNSGLPSEHLFPVDDRLGGTTAENHPGYDGPVPEVRTVTHFHGLELDPANDGQSDMWTSPGGVEGPRFDSAWQELPMEQGRTTSTYHDHTLGITRLNAYAGLLGLYSITTDAERELGLPSGDYDIPLLLQDKEFNDDGSLHYPEEFVSAFLGDTAVVNGAVWPYVEVEPRRYRFRILNGANHRSFDLQLESESGSGVPTMYQFAPGHGFLESVVPIGPNGDLDSLLLTPFERGELVVDFSDHAGETLTLANGADMGPELTDLVEFRVSDPSTPPEDASADPTSLSLPTPASYDESDARVTREMTLGTEVRNGLITHTLNGHVFGDEDAPVYPQLGATEIWELQNESGGRHPIHLHLVTFRVIGRGPDGTQPPDPNELGPKDTVRVDPGERVRILVTFEGYTGQFPWHCHMLEHEDNKMMIPFVVENPVADYANEENVVDATGLTDAVGDWRNETLETEVLLEVIDQWRSGDEVA
modifications: glycosylated
Q: Which “pH optimum, ABTS oxidation” value ([1]; 45° C., FIG. 6C) does the source give for B1 here?
A: 6.0

Q: And the Km [1, 11]?
A: 700 µM

Q: And the “kcat, ABTS” value [1, 11]?
A: 10.0 s⁻¹

Q: What about the Km [1, 12] of the same molecule?
A: 671 µM

Q: What about the “kcat, ABTS” value [1, 12] of the same molecule?
A: 9.9 s⁻¹

Q: What about the “Specific activity, ABTS oxidation” value ([1]; US02-purified LccA, standard conditions) of the same molecule?
A: 6.1±0.39 U·mg^−1

Q: What about the “Specific activity, DMP oxidation” value [2] of the same molecule?
A: 12.6±1.1 U·mg^−1

Q: And the Km [3]?
A: 236 µM

Q: And the “kcat, bilirubin” value [3]?
A: 29 s⁻¹

Q: What about the “Specific activity, bilirubin oxidation” value ([3]; standard conditions) of the same molecule?
A: 25.5±1 U·mg^−1

Q: And the Oxidation of guaiacol [4]?
A: did not oxidize

Q: What about the “Oxidation of Fe^2+ (ferrous ammonium sulphate)” value [5] of the same molecule?
A: did not oxidize

Q: What about the “Activity retained after incubation” value ([6]; 37° C., 2½ days) of the same molecule?
A: nearly all of its original activity

Q: And the Activity after pre-incubation ([6]; 1 h at 55° C.)?
A: fully active

Q: And the Activity after pre-incubation ([6]; 5 h at 50° C.)?
A: fully active

Q: What about the “Activity retained after incubation in NaCl” value [7] of the same molecule?
A: nearly all of its original activity

Q: What about the “Activity retained after incubation in solvent” value ([8]; 25% (v/v) DMSO or DMF) of the same molecule?
A: over 50%

Q: What about the “Activity retained after incubation in solvent” value ([8]; 24 h, 25% (v/v) methanol or ethanol) of the same molecule?
A: ~75%

Q: And the “Phenol content after treatment” value ([9]; 3 h of treatment, from 1473±10 before)?
A: 1160±26 mg phenol per liter

Q: What about the “Reduction in the phenol content” value ([9]; 3 h of treatment, ~1 g dry weight bagasse in 15 ml T buffer) of the same molecule?
A: 21%

Q: And the “Reduction in the phenol content” value ([9]; bagasse (~1 g dry weight equivalents) in 50 ml of T buffer)?
A: 38-43%

Q: And the “pH optimum, SGZ oxidization” value ([10]; 45° C., FIG. 6C)?
A: 8.4

Q: And the “Activity relative to temperature optimum” value ([10]; 55° C.)?
A: 67%

Q: What about the “Activity relative to temperature optimum” value ([10]; 60° C.) of the same molecule?
A: 48%

Q: And the “Activity relative to temperature optimum” value ([10]; 65° C.)?
A: 35%

Q: What about the “Activity relative to temperature optimum” value ([10]; 70° C.) of the same molecule?
A: 15%

Q: What about the “kcat, SGZ” value [10, 11] of the same molecule?
A: 19.4 s⁻¹

Q: And the “kcat, SGZ” value [10, 12]?
A: 21.7 s⁻¹

Q: What about the “Specific activity, SGZ oxidation” value ([10]; LccA purified from H. volcanii US02, fraction F2 (upper fraction), MonoQ 10/10) of the same molecule?
A: F2, 6.7 U · mg^−1

Q: And the “Salt concentration for optimal activity” value ([10]; NaCl or KCl in T buffer at 45° C., FIG. 6B)?
A: ~200 mM

Q: And the “Activity in KCl higher than in NaCl” value ([10]; at ~200 mM salt)?
A: 1.5 fold

Q: What about the “Specific activity, SGZ oxidation” value ([10]; improved purification protocol from H. volcanii US02, MonoQ 10/10 pH 8.4) of the same molecule?
A: 51.5 U·mg^−1

Q: And the “Specific activity, SGZ oxidation” value ([10]; purified from culture broth of Hfx. volcanii SB01 (C-terminal StrepII tag), final MonoQ 10/10 pH 8.4)?
A: 1.3 U·mg^−1 and 1.34 U·mg^−1

Q: What about the Km [10, 11] of the same molecule?
A: 67 µM

Q: What about the Km [10, 12] of the same molecule?
A: 35 µM

Q: What about the “Activity relative to temperature optimum” value ([10]; room temperature (25° C.)) of the same molecule?
A: ~75%
